Paper doi:10.1101/2024.09.13.612636 (bioRxiv, 2024)
Values joined by “and” are separate entries in the source; they are usually repeats but may differ in a detail not shown here. Equal entries are not always repeated.

T1: GST-LdPEX3Δ1-42 (L. donovani PEX3 without the N-terminal predicted transmembrane domain, GST-tagged) (Leishmania donovani, UniProt A0A3Q8IW98 43-526)
T1 sequence: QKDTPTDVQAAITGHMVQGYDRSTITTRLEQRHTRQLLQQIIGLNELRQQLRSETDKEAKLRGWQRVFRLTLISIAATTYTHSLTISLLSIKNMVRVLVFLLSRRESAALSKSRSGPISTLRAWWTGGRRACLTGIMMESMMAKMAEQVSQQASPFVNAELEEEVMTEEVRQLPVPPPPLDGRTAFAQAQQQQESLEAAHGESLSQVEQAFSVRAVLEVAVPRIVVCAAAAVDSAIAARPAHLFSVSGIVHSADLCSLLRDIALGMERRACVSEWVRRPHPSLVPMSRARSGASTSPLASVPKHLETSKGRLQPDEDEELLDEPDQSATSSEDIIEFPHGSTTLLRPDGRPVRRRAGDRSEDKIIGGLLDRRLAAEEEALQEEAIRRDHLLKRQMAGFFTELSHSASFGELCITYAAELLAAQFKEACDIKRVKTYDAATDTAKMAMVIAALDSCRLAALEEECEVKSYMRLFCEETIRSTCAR


Legend:
[1] = target: GST-LdPEX3Δ1-42 (L. donovani PEX3 without the N-terminal predicted transmembrane domain, GST-tagged) (Leishmania donovani); assay: AlphaScreen or HTRF
[2] = target: T1, GST-LdPEX3Δ1-42 (L. donovani PEX3 …); assay: ELISA
[3] = target: T1, GST-LdPEX3Δ1-42 (L. donovani PEX3 …); assay: AlphaScreen or HTRF

| Molecule | Kd [1] [nM] | Kd [2] | Kd [3] [nM] |
| --- | --- | --- | --- |
| Tag-free LdPEX19 (from LdPEX19-T-His6 by thrombin cleavage) (natural protein) | 11.9 | – | – |
| LdPEX19-His6 (C-terminally His6-tagged full-length L. donovani PEX19, pET21b) (natural protein) MSDDDLDALLDEAMDMVDEQERKHEEEVRVRDAKLEDDLQKALDEASGTAGGDADMMKMLMSMLGGDSADDASLDSFKKSVMTMVSSLEGEENLGEEDKANLLRVKELMRVMEEEDIDKANDLLEQMKQEGKLPDCNNVGDAEIDEASRRCMEMLQQLSSATQVGHLDPAATPGAASSSSAAPPAAPAGDGAEIPSEVGRATEAMASALISTLADPQFVEPIKLMRDSYGPYMDAHGSELSHEDCERYERQRAKAQEICDLLQNPISGAEDPRLIQLLELMNKYSELGDPPRNLVKYAPKNRKGVEECQ | – | 10.6 nM and 10.5 nM | 10.4 ± 2.57 |
